Measured values reported in PMC5178350.

Target: Haloferax volcanii deoxyhypusine synthase (T7-His-DHS) (Haloferax volcanii)
Experiment: SEC; Sephacryl S-200 HR gel filtration column equilibrated with buffer A (20 mM Tris-HCl pH 8, 2 M NaCl), flow rate 0.3 mL/min; oligomer size from the estimated molecular weight

- stoichiometry N: 4
Substance: Haloferax volcanii deoxyhypusine synthase (T7-His-DHS) (enzyme)
